Experimental findings from the DeepSol protein solubility set are described below.

A short description of the data set: soluble on expression in E. coli; label from the status in PepcDB or PDB records.
Consider “MGSDKIHHHHHHMVNLDGGYTAYEQQHNNESFKLEKDKEIQIKDNRKTFNYSNLQCPGPIVNISKEIKNIAIGDQIEVVVTDHGFLNDIKSWVKQTGHTLVRLNDSGNEIRAIIQKEENKNIEVTHTKNGTTIVLFSGELDKAVAAMIIANGAKAAGRDVTIFCTFWGLNALKKIQSQRIKKKGIAKLFDFMLPNSPIKMPISKMNMFGVGNLMMRYVMKKKNVDDLPSLINQAVEQGVKLIACTMSMDVMGISKEELRDDVEYGGVGAYIGYTEQANHNLFI”, for which the “soluble on expression in E. coli” value is “not soluble”.
With “MAHHHHHHMLRRTQRWLLLNVSGESPSFRSKPVRNLQMDVQMSPYKEQFKDYWSTPVPWADREYGEKPKLGAPIPTRRAATAIVVGKNKHVAVDKVERGEDNDYKVLMMFREGKNRFVRDQFIFPSFPISLEDSSEDWEKILRRRGVKTAWNDLHHRLCAMRALFAQMNILLVPKEGGGLVEVEGPPGPKKWHLLVHSQPKAMKNLVDVLELPMETCLSQLLPFRCITTPTTETFRFDNLVYLVPFEKIPDVRFTISTVGEKLVWVSPMEAMARFNAGIMNMPTPNIIAISELNNECPIFADVTKRKPHDDYRSILPELYRHSQTKVATVLLPGDLMHPNTTEEDKAERYIRRFVYEKDYPFGIRAVFEERPATTEEMNEPLIQEAPKLLEEANEMDMVYADTPYPKREKQPGEIGRTRFPVPSYSFQEGAENEEGVIPVRNRNIESVGDLYSQTN” the entry was “not soluble”.
With “MQIWHMEPFPCGDRRLPHHVFPPKKITTTQLGQLAGVQYYKVDLDDTASMKKRLSAVKTEKNVTFTDMFTVSETMLEFDDKMEQFYEPQVQKEDVISLVVEGTCYYDVEPEDDSWIRVQVEKGDLIVIPKGLSHRFTTTPQNFVKIQRFFSRKVEGNQG” the entry was “not soluble”.
To “MSLLRFGIISTAKIAQDHVIPAIQDAENCVVSAIASRDHARARAVAERFSVPHAFGSYEEMLASDVIDAVYIPLPTAQHVEWTIKAANAGKHVLCEKPIALKAEEIDTLIAARDRNGVIVSEAFMVTYSPVWAKVKELLASGAIGTLKHVQGAFSYFNRDPGNMRNIPELGGGALPDIGVYPTIVTRFATGAEPRRVQATVERDREFGTDIYSSVRADFGTFELSFYLATQLASRQLMVFHGTDGYIEVKSPFNANRWGAEEIELTNQAHNQSQVFRFQDSRQYKLEAEAFARAVRGEGEVVTLENSRKNQLFIDAIYRAAEKDGWETVEGHHHHHH” belongs “soluble”; to “MAHHHHHHMSGQAGKQVAPVKCKGWAVEKPALKWSTDAVRLSDVTVPAPDPTQIRVRVYAASINPVDWKRVMFPASGSGPGVAGSALKGFKGMHHKPPNYPYPYVVGVDGAGEVESVGRKVTGLKAGDRVMFHSSLTNAHGGSLCEYAVMEESVAVPIPADGARPFSYEEAAAIPCATWTAYVALFDKLRIEPGRSIFVDGASGAVGSCAVQLAHHMGLYVFASCSPSNADYVRSIGADQVLNYHDGIEMVDQILDATEGYGVDYYLAVTNTQDAESFTDALRFGGAVCLLSGVLIPNSNVLFRRQLSVHYVFLNGLHGHPLTRPQLRYIGDQVAKLYQSGAFRLDVEVLPFAEAAKALDRSATGNVNHKKLIVQVASP”, “soluble”.
As for “MNPIIDGIIALEGGYVFNPKDKGGATHWGITEATARAHGYAGDMRDLTHAEAYAILEEDYWIKPGFDVISTLSWPVSFELCDAAVNIGAYHPSAWLQRWLNVFNHEGKRYPDIHVDGNIGPRTLAALEHYLAWRGQEGEAVLVKALNCSQGTYYLNVAEKNHNNEQFIYGWIKNRVT”, the “soluble on expression in E. coli” value is “soluble”.
To “MHGRLKVKTSEEQAEAKRLEREQKLKLYQSATQAVFQKRQAGELDESVLELTSQILGANPDFATLWNCRREVLQHLETEKSPEESAALVKAELGFLESCLRVNPKSYGTWHHRCWLLSRLPEPNWARELELCARFLEADERNFHCWDYRRFVAAQAAVAPAEELAFTDSLITRNFSNYSSWHYRSCLLPQLHPQPDSGPQGRLPENVLLKELELVQNAFFTDPNDQSAWFYHRWLLGRAEPHDVLCCVHVSREEACLSVCFSRPLTVGSRMGTLLLMVDEAPLSVEWRTPDGRNRPSHVWLCDLPAASLNDQLPQHTFRVIWTGSDSQKECVLLKDRPECWCRDSATDEQLFRCELSVEKSTVLQSELESCKELQELEPENKWCLLTIILLMRALDPLLYEKETLQYFSTLKAVDPMRAAYLDDLRSKFLLENSVLKMEYADVRVLHLAHKDLTVLCHLEQLLLVTHLDLSHNRLRALPPALAALRCLEVLQASDNALENVDGVANLPRLQELLLCNNRLQQSAAIQPLVSCPRLVLLNLQGNSLCQEEGIQERLAEMLPSVSSILT” belongs “soluble”; to “MGSDKIHHHHHHMSTPTRIITSKDIETGKHISPAQRLRIMNADEWEEFIEEWTDSLKKEYFKVERLGGAGDKGRDIVAQLENAEIWDNYQCKHYGHSLRPSDIWTEIGKLVYYTAIGDFTCPRKYFFIAPLGVGTSLSDLLKNPRKLVQGLRENWDKYCKDKITQNCLIKLSDMEPQLEKIDFSIFGYVTPLTIIEQHRKTPHFITRFGGGLPKREIPPEPPIKSTSEESEYLKKILQAYSDFNKQDISTIDDVTDIDLTEHYKDSRIQFYSAEALKRFSRDALPENEFKLLQQEFLNGIKDEIRNPVHANGYLRLLEVVKVARALQITSHALIDCLMVNDRGGICHQLANDNESIAWAKNG”, “not soluble”; to “MELAQEARELGCWAVEEMGVPVAARAPESTLRRLCLGQGADIWAYILQHVHSQRTVKKIRGNLLWYGHQDSPQVRRKLELEAAVTRLRAEIQELDQSLELMERDTEAQDTAMEQARQHTQDTQRRALLLRAQAGAMRRQQHTLRDPMQRLQNQLRRLQDMERKAKVDVTFGSLTSAALGLEPVVLRDVRTACTLRAQFLQNLLLPQAKRGSLPTPHDDHFGTSYQQWLSSVETLLTNHPPGHVLAALEHLAAEREAEIRSLCSGDGLGDTEISRRAGGLWVCWSPSGAPS”, “soluble”.
With “MGSDKIHHHHHHMAGGVSLKYILEQLAEERLGFLVNGHAMRQESQVGDLKVMERKKKLLEKRKVDIIKAKAKAVINHVRVEDDGTTCLSYTIHYEYVCKEQDDSLYIEEHIEERMAFLYDHILISDQEIAKKPAGFHEGTSIIDYSEAEEEREAFGRAFQYDRLGAVQYAEKFWNKRNPAYKNFSDNCTNFISQCLHAGGAPMRGHPNRGSGWWMKQSSWSYSWTVAHSMKMYLSNSKAGLRAVRVKSAEELMPGDVICYDFEGDGRFNHTTIVVAKDKGNMPLVNAQTYDSRMRYWSYEDSTAYTPSIRYAFFHIVDDTTKE” the entry was “not soluble”.
With “GMTQHITRMRREIDEIPEAVQRLLDHGAQDVARVAAVLRLRDPSFVATVARGSSDHVCTYLSYAAELLLGLPVASLGPSVASVYDARLRLDRALCLAVSQSGKSPDIVAMTRNAGRDGALCVALTNDAASPLAGVSAHTIDIHAGPELSVAATKTFVTSAVAGLMLLADWAEDDGLRAALGNLPETLAAASRIDWPEMRVAIGARPSLFTLGRGTSLAVSNEAALKFKETCQLHAESYSSAEVLHGPVSIVEEGFPVLGFAAGDAAEAPLAEIADQIAAKGATVFATTGRVTRARVLEHVRSGHALTDPLSLIVSFYSMVEAFASERGIDPDAPRHLNKVTETV” the entry was “soluble”.
Consider “MKKNTSKTTMRINKQDALCTPHSHDPRDLQNMLDGGEYAPFVSPPMLESNFIQVNRRGESIYLHNRANWVTVGICFSSSTHKIPNVMLLAHLTPGAQKDTETLFKSLLTSPPAEKLVLTRFLPLQFVTLSVHDAENMSLKVKLVSGRAYYLQLCTSAYKQDTLFSQWVALISLLNQEKAKVSKVSEVSSLSGITNSTDITGSMDVTDVTTFTAILTPYMYAGTGPEHVRDSIDFPEFTDITDITDVTDLPENEVPEVPDVRIVTEVIEVREATEVTDSSDITNCSGVTVVFENNDLIRAKQEEKEKLKNILKPGCLQDTKSKRYFQTTLTPVESEANTSKEMKDKTSEEKMPDFQSTALKAEESRSLRTESNTSVLSPHIKSPSNFLKLVPHLSAPFSRE”, for which the “soluble on expression in E. coli” value is “soluble”.
To “MNLHQTVEHEAAAAFAAAGIAGSPVVLQPTKNAEHGDFQINGVMGAAKKAKQNPRELAQKVADALAGNAVIESAEVAGPGFINLRLRHEFLAQNIHAALNDARF” belongs “not soluble”.
As to “MVLGEYYAVAGHIGFGGKADARHMGNDPRRALVHPPFLPDFGQHIFFHRALEPENRWKRMAGRPRTSAARAFCRQ”, the “soluble on expression in E. coli” value was “not soluble”.
For the sequence “SKIASFDVDAQKGFTPLCPDELPVPGGDAIGGALNQLASRAALRLGSKDAHSPKAAWVVESAEQMLRPLAYPDADLTWVSHCVPGTPGFELLDELPRPIDYDFFVWKGVEPDLHPYGACYHDLAERRSTGVIEYLRQNGVSHVLVGGLALDYCVKNTALQLRRAGFEVLLYLPACRAIAEDTAQRACDEMRDAGVILCADLERLDSALA”, the “soluble on expression in E. coli” value is recorded as “not soluble”.
With “MEKTSNTSKPLSRSEINKIIAVATGIKEKKIKEIFKYLNTLLLNELVSRSVCILPENLGKLRITIRNARYQKDMQTGEIRHIPPKPLVRYSPSKTIKETAAKVRWKYAD” the entry was “soluble”.
To “MSLTDAILYELHIRDATIHPGSGVSKKGTYKGLMEEGTTGRNGTLTGLSHIKDLGVTHVELLPLYCFGGVDEANPSSAYNWGYNPLYYNAPTGYYATNPSDPYNRIVECKQLIETFHEHGIRVIIDVVYNHVYERELSSFEKLVPGYYFRHGENGMPSNGTGVGNDIASERKMMRKFIVESILYWLTEYNVDGFRFDLMGILDVDTINIIEKEVRNIKRDALLLGEGWDLQTPLPLEEKATLNNAKKMPHIAQFNDQFRDGIKGSTFHINKRGFAFGGYVDCNHLQYIASGSLLSMKETGLFLEPVQSINYVECHDNMTMWDKLMRSNEESEEILKKRHLLATAMVILSQGIPFLHAGQEFYRTKQGNENSYNANDEINQLDWDRKEKEIETVNYIKGLIAIRKEHGAFRLQNADLIKKHMTFLQTSPEVLAYHLEHVESFGPWKEIVVLFNSSLEAKTVQLPKEETWHVLVNEKQAKIEPISSFRGKELRLAPISTYILTIMEGHHHHHH” belongs “not soluble”; to “MTGVDPTIVKIHEIQGTGTASPLVNNVVTIEAIVVGDFQDGDGDISRNLRGFYVQEEDADVDGNVATSEGIFIFENGNFITDVNVGDKVQITGTVDEFFGETQIDTITNITVISSGNTLPTAANITLPTAGTTESQGGTPQPDLEAFEGMLVKFTDTLTITEMFNLDRFNEIKLSQGGRPQQFTQFNDANVAGYGAYREEIGARTITYDDGLSVQNAEISNLDGFGSSFSTASDIRMGDTINNLTGVLSYQWAGNASSGATWRVRSAVDGTNQFTKVNDRPVTPENVGGSLKVTGFNVLLEHHHHHH”, “soluble”; to “MAQLYYRYGTMNSGKTIEILKVAYNYEEQGKGVVIMTSALDTRDGVGYVSSRIGMKRPALAIEETTDIFGYIRDLPEKPYCVLVDEAQFLKRHHVYDLARVVDELDIPVMAFGLKNDFRNELFEGSKYLLLLADKIDEIKTICQYCKKKATMVLRTQDGLPVYDGEQIQIGGNETYISVCRKHYFAPMITSNKEQNYDNLEHHHHHH”, “soluble”.
To “NAVHFGAGNIGRGFIGKLLADAEVEVTFADVDVPLVDQLSHKQEYKVKVVGTECKIDTVTHVTAVNSASEDVIDRIVKTDLVTTAVGPNVLDIIAKTIAKGIAKRFEAGNDAPLNIIACENMVRGTTHLKGEVYKHLDKSLHAKADELVGFVDSAVDRIVPPAEAANDDPLEVTVESFSEWIVDEQQFKGDIPNIAGMEKTNN” belongs “soluble”.
Turning to “MAAWFECKVTYEKVADNGMPKKVVESYLVDADSFTLAEAKMIEEITPFVSMGEFNISNIRKVNYAELFLNEDDKCDRYYRCKVLYVTIDEKNGVEKKTPAFMLVKSDSLPNAVAELEKQMGKGLADYEIASVAETALMDVFQYVPAQ”, the “soluble on expression in E. coli” value is listed as “not soluble”.
